According to patent US20230035798A1 (CAPELLA BIOSCIENCE, published 2023):

T1: recombinant human soluble LIGHT, amino acids 74-240 (R&D Systems 664-LI-025) (human, UniProt O43557 74-240)
T1 chain: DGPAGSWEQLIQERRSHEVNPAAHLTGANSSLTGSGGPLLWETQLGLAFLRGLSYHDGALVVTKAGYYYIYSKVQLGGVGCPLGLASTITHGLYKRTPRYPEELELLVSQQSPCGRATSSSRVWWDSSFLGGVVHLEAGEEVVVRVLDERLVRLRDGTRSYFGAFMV


Assays:
[1] = biological target: T1, recombinant human soluble LIGHT, amino …; assay: cell-based or functional assay
[2] = biological target: membrane LIGHT without residues 81-84 (EL4-NC-LIGHT cells) (human, UniProt O43557 1-240); assay: cell-based or functional assay
[3] = biological target: T2, human LIGHT (TNFSF14), full length, membrane-bound (214E allele) (human, UniProt O43557 1-240); assay: flow cytometry, EL4-LIGHT cells
T2 construct: also called membrane LIGHT; human membrane LIGHT
Experimental: The EC50 of the 7 mAbs were calculated from binding to EL4-LIGHT cells (Table 7) which represents a more accurate comparison of the EC50's than utilising transiently transfected LIGHT cells. […] Non-linear regression analysis was performed to determine the functional binding affinity measurement or EC50 for each mAb. A range of functional affinities was observed.
Target sequence in this assay (O43557 whole entry K214E): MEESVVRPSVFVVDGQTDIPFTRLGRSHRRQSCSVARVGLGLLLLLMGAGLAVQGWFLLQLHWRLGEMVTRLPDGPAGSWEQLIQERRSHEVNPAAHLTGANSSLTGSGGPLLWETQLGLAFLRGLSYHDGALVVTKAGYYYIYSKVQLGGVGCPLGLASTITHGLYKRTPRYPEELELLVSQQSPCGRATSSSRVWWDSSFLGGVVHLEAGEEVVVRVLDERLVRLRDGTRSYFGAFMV

[4] = biological target: T2, human LIGHT (TNFSF14), full length, …; assay: flow cytometry, transiently transfected HEK293FF cells
From the text: (§1) In order to compare the cross-reactivity of the mAbs to both human and cynomolgus LIGHT, transiently transfected human or cynomolgus LIGHT-HEK293FF cells were utilised in which approximately 50% of the cells expressed LIGHT and bound mAb was detected with goat anti-human IgG FITC. The EC50 of each mAb is depicted in Table 6 after correction for background binding to untransfected cells. (Note that when the relationship between receptor occupancy and response is linear, EC50 may be equivalent or substantially equivalent to KD).
Target sequence in this assay (O43557 whole entry K214E): as above

[5] = biological target: T3, cynomolgus (Macaca fascicularis) LIGHT, membrane-bound (cynomolgus (Macaca fascicularis), UniProt E9NVF7 1-240); assay: as above
T3 construct: whole, on cells; also called cynomolgus membrane LIGHT; HEK293FF-cynomolgus LIGHT cells
From the text: as §1

[6] = biological target: T2, human LIGHT (TNFSF14), full length, …; assay: DcR3-His (1 nM) competition, EL4-LIGHT, flow cytometry; 3.7 nM
Experimental: (§2) EL4-LIGHT cells (0.25×10⁶) were preincubated with anti-membrane LIGHT mAbs (0-300 nM) for 15 min at 4° C. followed by incubation with DcR3-His tagged (1 nM, Creative BioMart; ref: TNFRSF6B-552H, lot: 962512) for 30 min at 4° C. The samples were then incubated with mouse anti-histag antibody (diluted 1:500, Biolegend, cat. no. 652502) for 30 minutes at 4° C., followed by incubation with anti-mouse APC (dil 1:500, BDBiosciences, cat. no. 550826) for 30 minutes at 4° C. The tubes were washed three times after each of the detection antibody stages and flow cytometry analysis was performed. Specific mean fluorescence intensity (MFI) obtained from the binding of DcR3-His to LIGHT on EL4 cells were used to determine the levels of competition binding.
(§3) In humans, LIGHT is neutralized by DcR3, a unique soluble member of the TNFR superfamily, which tightly binds LIGHT (both soluble and membrane forms) and inhibits its interactions with HVEM and LTβR. A major binding determinant for DcR3 neutralization is the region T170-E178 on LIGHT (Liu et al. Structure 2014: 9; 1252-1262). […] In contrast the anti-LIGHT mAb F19, (from EP2292663) which binds both soluble LIGHT and membrane LIGHT equally well completely displaces DcR3 from binding to membrane LIGHT highlighting a surprising an important functional difference between the anti-membrane LIGHT mAbs of this invention and other neutralizing anti-LIGHT mAbs that have been raised against or screened against soluble LIGHT.
Target sequence in this assay (O43557 whole entry K214E): as above

[7] = biological target: T2, human LIGHT (TNFSF14), full length, …; assay: DcR3-His (1 nM) competition, EL4-LIGHT, flow cytometry; 0.41 nM
Experimental: as §2, §3
Target sequence in this assay (O43557 whole entry K214E): as above

[8] = biological target: T2, human LIGHT (TNFSF14), full length, …; assay: DcR3-His (1 nM) competition, EL4-LIGHT, flow cytometry; 1.23 nM
Experimental: as §2, §3
Target sequence in this assay (O43557 whole entry K214E): as above

[9] = biological target: T2, human LIGHT (TNFSF14), full length, …; assay: DcR3-His (1 nM) competition, EL4-LIGHT, flow cytometry; 11.1 nM
Experimental: as §2, §3

[10] = biological target: T2, human LIGHT (TNFSF14), full length, …; assay: DcR3-His (1 nM) competition, EL4-LIGHT, flow cytometry; 33.3 nM
Experimental: as §2, §3
Target sequence in this assay (O43557 whole entry K214E): as above

[11] = biological target: T2, human LIGHT (TNFSF14), full length, …; assay: competition with biotin-LTβR-Fc, EL4-LIGHT cells, flow cytometry
Experimental: Biotin-LTβR-Fc and biotin-HVEM-Fc were prepared using a kit purchased from ThermoFisher (EZ-Link NHS-LC-Biotin; cat. no. 21336) according to the manufacturer's instructions. […] The diluent used was FACS buffer. The cells were washed 3 times with FACS buffer and biotin-LTβR-Fc and biotin-HVEM-Fc binding detection to cells was performed with streptavidin-APC (1:400; BioLegend cat. No. 405207) for 30 min at 4° C. and fluorescence read in the RL-1 channel. The anti-HEL mAb 2A11 was utilised as a background control.
The above experiment was repeated utilising LIGHT stably expressed on EL4-cells and the results depicted in Table 11B.

membrane LIGHT without residues 81-84 (EL4-NC-LIGHT cells), sequence (O43557 other isoform, or with tags, fused parts or gaps): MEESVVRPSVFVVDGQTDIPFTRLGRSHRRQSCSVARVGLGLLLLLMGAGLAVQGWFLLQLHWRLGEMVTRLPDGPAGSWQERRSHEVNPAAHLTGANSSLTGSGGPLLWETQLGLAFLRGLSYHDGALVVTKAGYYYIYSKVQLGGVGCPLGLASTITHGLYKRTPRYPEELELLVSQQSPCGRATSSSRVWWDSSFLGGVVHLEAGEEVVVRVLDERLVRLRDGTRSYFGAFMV
T3 sequence (E9NVF7 entry or part of it): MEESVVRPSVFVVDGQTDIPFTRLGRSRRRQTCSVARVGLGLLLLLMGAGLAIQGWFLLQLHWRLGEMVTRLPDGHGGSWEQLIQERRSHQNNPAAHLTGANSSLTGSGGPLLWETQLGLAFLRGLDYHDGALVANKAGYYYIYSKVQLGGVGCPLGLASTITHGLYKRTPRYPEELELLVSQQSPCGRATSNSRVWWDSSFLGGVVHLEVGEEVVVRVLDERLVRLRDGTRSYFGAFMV

| Binder | IC50, nM soluble LIGHT (5 ng/ml; IL-8 release from HT-29 cells) [1] [nM] | IC50, nM membrane LIGHT (IL-8 release from HT-29 cells) [2] [nM] | EC50 [3] [pM] | EC50 [4] [pM] | EC50 [5] [pM] | DcR3-His binding, % of irrelevant mAb [6] [%] | DcR3-His binding, % of irrelevant mAb [7] [%] | DcR3-His binding, % of irrelevant mAb [8] [%] | DcR3-His binding, % of irrelevant mAb [9] [%] | DcR3-His binding, % of irrelevant mAb [10] [%] | IC50 [11] [pM] |
| --- | --- | --- | --- | --- | --- | --- | --- | --- | --- | --- | --- |
| 2E08 (antibody, human IgG4, V domains shown, chimeric human IgG4 (S-to-P, L-to-E at 248), human CL; also called Parental 2E08) VH: QVQMKESGAELVRPGVSVKISCKGSGYTFTDYAIHWVKQSHAKTLEWIGVISTYYGDASYNQKFKGKATMTVDKSSSTAYMELARLTSDDSAIYYCARSRGEYGNYDAMDYWGQGTSVTVSS VL: DIVLTQSPASLAVSLGQRATISCKASQSVDYDGDSYMNWYQQKPGQPPKLLIYAASNLESGIPARFSGSGSGTDFTLNIHPVEEEDAATYYCQQSNEDPLTFGAGTKLELK | > 100 | 1.8 | 1800 | 300 | 300 | 66.1 | 107 | 118 | 85.7 | 78.4 | 5700 |
| 2B11 (antibody, human IgG4, V domains shown, chimeric human IgG4 (S-to-P, L-to-E at 248), human CL; also called Parental 2B11) VH: EVQLVESGAELVRPGVSVKISCKGSGYTFTDYAIHWVKQSHAKSLEWIGVISTYYGDASYNQKFKGKATMTVDKSSSTAYMELARLTSEDSAIYYCARSRGEYGNYDAMDYWGQGTSVTVSS VL: DIVLTQSPASLAVSLGQRATISCRASESVDSYGNSFMHWYQQKPGQPPKLLIYRASNLESGIPARFSGSGSRTDFTLTINPVEADDVATYYCQQSNEDPYTFGGGTKLEIK | 47 | 0.55 | 300 | 400 | 20 | 78.6 | 114 | 115 | 77.5 | 79.8 | 360 |
| 3E09 (antibody, V domains shown, chimeric human IgG4 (S-to-P, L-to-E at 248), human CL; also called Parental 3E09) VH: EVQLVESGGGLVKPGGSLKLSCEASGFTFSDYYMYWVRQTPEKRLEWVAAIGDGGIYTYYADTVKGRFTISRDNAKNILYLQMSSLKSNDTAMYYCARGTGDGFAYWGQGTLVTVS VL: DIVLTQSPASLAVSLGQRATISCRASESVDSYGNSFMHWYQQKPGQPPKLLIYLASNLESGVPARFSGSGSRTDFTLTIDPVEADDAATYYCQQNNEDPYTFGGGTKLEIK |  |  | 8100 | 1300 | 700 | 80.4 | 94.2 | 66.9 | 71.1 | 70.5 | 38000 |
| 3A07 (antibody, human IgG4, V domains shown, chimeric human IgG4 (S-to-P, L-to-E at 248), human CL; also called Parental 3A07) VH: QVQLQQSGAELVRPGAPVTLSCKASDYTFTDSEIHWVKQTPVHGLEWIGEIDPETGGTAYNQKFKGKATLTADKSSSTAYMELRSLTSEDSAVYYCSRETDYFFDYWGQGTTLTVSS VL: ENVLTQSPAIMSASPGEKVTMTCSASSSVSYMYWYQQRPGSSPRLLIYDTSNLASGVPVRFSGSGSGTSYSLTISRMEAEDAATYYCQQWSSYPLTFGSGTKLEIK | > 100 | 2 | 140 | 100 | 7600 | 89.6 | 102 | 90.6 | 75.8 | 67.5 | 350 |
| 3B04 (antibody, human IgG4, V domains shown, chimeric: mouse variable domains on human IgG4 HC (S-to-P and L-to-E at 248) and human CL; also called Parental 3B04; 3B04 chimeric) VH: QVQLQQPGAELVRPGASVTLSCKASGYTFTDYEMHWVKQTPVHGLEWIGEIDPETGDTAYSQKFKGKATLTADKSSSTAYMEFRSLTSEDSAVYYCSRETDYFFDYWGQGTTLTVSS VL: DIQMTQTPASLSASVGETVTITCGASENIYGALNWYQRKQGKSPQLLIYGATNLADGMSSRFSGSGSGRQYSLKISSLHPDDFATYYCQNVLTTPWTFGGGTKLEIKR | 6.5 | 0.15 | 150 | 200 | 100 | 78.5 | 94.8 | 75.1 | 78.3 | 85.1 | 190 |
| 3D12 (antibody, human IgG4, V domains shown, chimeric: mouse variable domains on human IgG4 HC (S-to-P and L-to-E at 248) and human CL; also called Parental 3D12; 3D12 chimeric) VH: QVQLQQPGAELVRPGASVTLSCKASDYTFTDSEIHWVKQTPVHGLEWIGEIDPETGGTAYNQKFKGKATLTADKSSSTAYMELRSLTSEDSAVYYCSRETDYFFDYWGQGTTLTVSS VL: DIQMTQSPASLSASVGETVTITCGASENIYGALNWYQRKQGKSPQLLIYGATNLADGMSSRFSGSGSGRQYSLKISSLHPDDVATYYCQNVLSTPWTFGGGTKLEIKR | 3.4 | 0.1 | 200 | 200 | 300 | 68.6 | 99.4 | 72.8 | 61.1 | 78.1 | 190 |
| 3C10 (antibody, human IgG4, V domains shown, chimeric human IgG4 (S-to-P, L-to-E at 248), human CL; also called Parental 3C10) VH: EVQLQQSGAELVRPGASVTLSCKASDYTFTDSEIHWVKQTPVHGLEWIGEIDPETGGTAYNQKFKGKATLTADKSSSTAYMELRSLTSEDSAVYYCSRETDYFFDYWGQGTTLTVSS VL: DVVMTQTPAIMSASPGEKVTMTCSASSSVSYMYWYQQKPGSSPRLLIYDTSNLASGVPVRFSGSGSGTSYSLTISRMEAEDAATYYCQQWSSYPLTFGAGTKLELK | > 100 | 1.9 | 160 | 200 | 10300 | 86.9 | 124 | 95.5 | 83.6 | 81.9 | 860 |
